Experimental findings from patent publication US20250027068 are described below.

B1: PRT-116 (protein)
chain: MRNATEAYNKATPTTITSVWTKGVTPPTPEQFRYNNEDVFHAPYKAHQGWYDITKTFNGKDNLLCGAATAGNMLHWWFDQNKTEIEAYLSKHPEKQKIIFNNQELFDLKAAIDTKDSQTNSQLFNYFRDKAFPNLSARQLGVMPDLVLDMFINGYYLNVFKTQSTDVNRPYQDKDKRGGIFDAVFTRGDQTKLLTARHDLKDKGLNEISDLIKQELTEGKALALSHTYANVRISHVINLWGADFNAEGNLEAIYVTDSDANASIGMKKYFVGVNSSGHVAISAKKIEGENIGAQVLGLFTLSSGKDIWQKLS
B2: PRT-10 (protein)
chain: MANQEIRYSEVTPYTVTSVWTKGVTPPANFTQGEDVFHAPYVANQGWYDITKTFNGKDDLLCGAATAGNMLHWWFDQNKEQIERYLKEHPEKQKINFNGEQMFDVKEAIDTKDSQLDSELFEYFKEKAFPYLSTKHLGVFPDHVIDMFINGYRLSLTNHGPTPVKEGSKDPRGGIFDAVFTRGDQSKLLTSRHDFKEKTLKEISDLIKKELTEGKALALSHTYANVRINHVINLWGADFDSEGNLEAIYVTDSDSNASIGMKKYFVGVNSAGKVAISAKEIEDDNIGAQVLGLFTLSTGQDIWNQTN
B3: PRT-120 (protein)
chain: MRNATEAYNEETPKQITSVWTKGVTPLTPEDFRYNNEDVFHAPYLANQGWYDITKTFNGKDNLLCGAATAGNMLHWWFDQNKEEIEAYLKKHPEKQKIIFNNQELFDLKAAIDTKDSQTNSQLFNYFKDKAFPNLSARQLGVMPDLVLDMFINGYYLNVNKTQSTDVNRPYQDKDKRGGIFDAVFTRGDQTKLLTERHDLKNKGLNDISTLIKQELTEGKALALSHTYANVSINHVINLWGADFDAEGNLEAIYVTDSDSNESIGMKKYFVGINAAGKVAISAKKIEDENIGAQVLGLFTLSSGKDIWQQLS
B4: PRT-114 (protein)
chain: MRNATEAYNEETPHQITSVWTKGVTPPTPEQFRYNNEDVIHAPYLANQGWYDITKTFNGKDNLLCGAATAGNMLHWWFDQNKTEIEAYLSKHPEKQKIIFNNQELFDLKAAIDTKDSQTNSQLFNYFREKAFPNLSARQLGVMPDLVLDMFINGYYLNVTKTQSTDVNRPYQDKDKRGGIFDAVFTRGDQTKLLTARHDLKNKTLNEISTLIKQELTEGRALALSHTYANVSISHVINLWGADFNAEGNLEAIYVTDSDANASIGMKKYFVGVNAAGHVAISAKKIEGENIGAQVLGLFTLSSGKDIWQKLS
B5: PRT-119 (protein)
chain: MRNATEAYAKETPKQITSVWTKGVTPPTPEQFRYNNEDVFHAPYVANQGWYDITKTFDGKDNLLCGAATAGNMLHWWFDQNKTEIEKYLSKHPEKQKIIFNNQELFDLKAAIDTKDSQTNSQLFNYFRDKAFPNLSARQLGVMPDLVLDMFINGYYLNVTKTQSTDVNRPYQDKDKRGGIFDAVFTRGDQTKLLTARHDLGNKSLNEISQLIKQELQEGKALALSHTYANVRISHVINLWGADFDAEGNLEAIYVTDSDSNASIGMKKYYVGVNSAGKVAISAKKIEGENIGAQVLGLFTLSSGKDIWQKLS
B6: PRT-121 (protein)
chain: MRNATEAYNEDTPKQITSVWTKGVTPPTPEQFRKYNEDVLHAPYIANQGWYDITKTFNGKDDLLCGAATAGNMLHWWFDQNKTEIEAYLSKYPEKQKIIFNNQELFDLRAAIDTKDSQTNSALFNYFRDKAFPNLSARQLGVMPDLVLDMFINGYYLNVTKTQSTDVNRPYQTKDKRGGIFDAVFTRGDQTTLLTSRHDLKNKTLNEISDLIKQELTEGKALALSHTYANVSISHVINLWGADFNAEGNLEAIYVTDSDANASIGMKKYFVGVNAAGKVAISAKKIEGENIGAQVLGLFTLSTGKDIWEKLS
B7: PRT-117 (protein)
chain: MRNATEAYAKEVPHTITSVWTKGVTPPTPEQFTYQNEDVFHAPYLANQGWYDITKTFNGKDNLLCGAATAGNMLHWWFDQNKEEIERYLSKHPEKQKIIFNNQELFDLKAAIDTKDSQTNSALFNYFRDKAFPNLSARQLGVMPDLVLDMFINGYYLNVFKTQSTDVNRPYQDKDKRGGIFDAVFTRGDQTTLLTARHDLKNKGLNDISDLIKQELTEGKALALSHTYANVSISHVINLWGADFNAEGNLEAIYVTDSDANASIGMKKYFVGVNTAGKVAISAKKIEGENIGAQVLGLFTLSSGKDIWEQLS
B8: PRT-118 (protein)
chain: MRNATEAYNKETPKTITSVWTKGVTPPTPEQFTKQNEDVFHAPYVANQGWYDITKTFNGKDNLLCGAATAGNMLHWWFDQNKTEIENYLKKHPEKQKIIFNNQELFDLKAAIDTKDSQTNSALFNYFRDKAFPNLSARQLGVMPDHVLDMFINGYYLNVNKTQSTDVNRPYDDKDKRGGIFDAVFTRGDQTTLLTARHDLKNKGLNEISTLIKQELTEGRALALSHTYANVSISHVINLWGADFNAEGNLEAIYVTDSDANASIGMKKYFVGKNASGKVAISAKKIEGDNIGAQVLGLFTLSSGKDIWQKLS
B9: PRT-115 (protein)
chain: MRNATEAYAKETPKTITSVWTKGVTPPTPEQFRYNGEDVIHAPYLAHQGWYDITKTFDGKDNLLCGAATAGNMLHWWFDQNKTEIERYLKKHPEKQKIIFNNQELFDLKAAIDTKDSQTNSALFNYFRDKAFPNLSARQLGVMPDLVLDMFINGYYLNVTKTQSTDVNRPYQTKDKRGGIFDAVFTRGDQTKLLTARHDLKNKTLNDISTLIKQELTEGKALALSHTYANVSISHVINLWGADFNAEGNLEAIYVTDSDSNASIGMKKYFVGVNAAGKVAISAKKIKGENIGAQVLGLFTLSSGKDIWQKLS

The target of the data set is pooled human IgG.
For the protein B1, the Enzyme Activity Endpoint Assay (purified): Fab'2 was 510 ng/µL, the Enzyme Activity Endpoint Assay (purified): Fc came out at 188 ng/µL, the Enzyme Activity Endpoint Assay (purified): IgG was 0 ng/µL and the Enzyme Activity Endpoint Assay (purified): scIgG amounted to 0 ng/µL.

In turn, B2 displayed an Enzyme Activity Endpoint Assay: Fab′2 of 2 ng/µL, an Enzyme Activity Endpoint Assay: Fc of 56 ng/µL, an Enzyme Activity Endpoint Assay: IgG of 32 ng/µL and an Enzyme Activity Endpoint Assay: scIgG of 58 ng/µL.

For B3, the Enzyme Activity Endpoint Assay (purified): Fab'2 was determined as 92 ng/µL, the Enzyme Activity Endpoint Assay (purified): Fc came out at 113 ng/µL, the Enzyme Activity Endpoint Assay (purified): IgG turned out to be 28 ng/µL and the Enzyme Activity Endpoint Assay (purified): scIgG is 153 ng/µL.

B4: the Enzyme Activity Endpoint Assay (purified): Fab'2 was found to be 361 ng/µL, the Enzyme Activity Endpoint Assay (purified): Fc is 162 ng/µL, the Enzyme Activity Endpoint Assay (purified): IgG came out at 129 ng/µL and the Enzyme Activity Endpoint Assay (purified): scIgG was 111 ng/µL.

Regarding B5, the Enzyme Activity Endpoint Assay (purified): Fab'2 came to 15 ng/µL, the Enzyme Activity Endpoint Assay (purified): Fc is 96 ng/µL, the Enzyme Activity Endpoint Assay (purified): IgG amounted to 0 ng/µL and the Enzyme Activity Endpoint Assay (purified): scIgG was 133 ng/µL.

B6: the Enzyme Activity Endpoint Assay (purified): Fab'2 came out at 447 ng/µL, the Enzyme Activity Endpoint Assay (purified): Fc amounted to 174 ng/µL, the Enzyme Activity Endpoint Assay (purified): IgG is 0 ng/µL and the Enzyme Activity Endpoint Assay (purified): scIgG was determined as 0 ng/µL.

For the protein B7, the Enzyme Activity Endpoint Assay (purified): Fab'2 is 663 ng/µL, the Enzyme Activity Endpoint Assay (purified): Fc was found to be 207 ng/µL, the Enzyme Activity Endpoint Assay (purified): IgG was found to be 0 ng/µL and the Enzyme Activity Endpoint Assay (purified): scIgG was found to be 0 ng/µL.

As for B8, the Enzyme Activity Endpoint Assay (purified): Fab'2 is 23 ng/µL, the Enzyme Activity Endpoint Assay (purified): Fc came out at 85 ng/µL, the Enzyme Activity Endpoint Assay (purified): IgG was determined as 0 ng/µL and the Enzyme Activity Endpoint Assay (purified): scIgG amounted to 153 ng/µL.

Regarding B9, the Enzyme Activity Endpoint Assay (purified): Fab'2 amounted to 124 ng/µL, the Enzyme Activity Endpoint Assay (purified): Fc stood at 128 ng/µL, the Enzyme Activity Endpoint Assay (purified): IgG came to 24 ng/µL and the Enzyme Activity Endpoint Assay (purified): scIgG is 105 ng/µL.
